Measured values: the supplement of paper PMC10126150
± gives the standard deviation of the averaged measurements.

tested on: ATP; assay: switch fluorescence ratio, 500 uM ATP over buffer (Cy3 cluster intensity, sum of 5 cycles each) (fold (ratio)); higher = stronger signal-on switching upon ATP binding; sequences stand for … in TCGTCGGCAGCGTCAGATGTGTATAAGAGACAGTTTTTTTTTTTTTTTTTTTTTTTTT…TC; settings: aptamer strand: ATP DNA aptamer (quencher-CACCTGGGGGAGTATTGCGGAGGAAGG + anchor), 100 nM annealed; ATP concentration: 500 uM
In short: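 Switching-strand clusters labelled with Cy3 on a modified Illumina MiSeq flow-cell were annealed to 100 nM quencher-labelled ATP aptamer, imaged in selection buffer, and re-imaged after 15 min with 500 uM ATP at 22 °C. This was done over five cycles with NaOH stripping and re-annealing in between. The fluorescence ratio is summed target-cycle over summed buffer-cycle Cy3 intensity per cluster, averaged per switch-domain sequence, excluding clusters outside 100-1000 RFU.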
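Also: ATP exposure 15 min at 22 °C before imaging.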

Sequence | switch fluorescence ratio
GAGGTACTGG | 1.018 ± 0.008
GAGGTACTTT | 0.993 ± 0.022
GAGGTAGCGT | 1.01 ± 0.015
GAGGTATGGG | 0.9761 ± 0.0077
GAGGTATTAT | 0.9688 ± 0.0074
GAGGTCGAAA | 0.98 ± 0.013
GAGGTGAGTT | 0.983 ± 0.01
GAGGTGCCTA | 0.991 ± 0.02
GAGGTGGGCT | 1 ± 0.067
GAGGTGGGGG | 0.993 ± 0.029
GAGGTGGGTG | 1.015 ± 0.0056
GAGGTGTTGA | 0.9979 ± 0.003
GAGGTTAAAT | 0.992 ± 0.034
GAGGTTATAC | 1.38 ± 0.042
GAGGTTATAT | 0.992 ± 0.017
GAGGTTGGAT | 0.982 ± 0.016
GAGGTTGGGC | 0.993 ± 0.03
GAGGTTGTGG | 0.973 ± 0.06
GAGGTTTGGC | 0.988 ± 0.051
GAGTAAAATT | 1.13 ± 0.18
GAGTAAAGTC | 0.934 ± 0.029
GAGTAACTCG | 1.007 ± 0.0067
GAGTAACTGG | 0.983 ± 0.027
GAGTAAGTGC | 0.972 ± 0.053
GAGTAATGTT | 1.02 ± 0.016

Sequence | switch fluorescence ratio
GAGTACAAAA | 1.02 ± 0.015
GAGTACCAGG | 1.25 ± 0.017
GAGTACTAGT | 1.015 ± 0.0072
GAGTACTGAG | 1.163 ± 0.0012
GAGTACTGTT | 0.972 ± 0.045
GAGTAGGACC | 1.03 ± 0.016
GAGTAGTAGT | 0.967 ± 0.026
GAGTAGTATA | 0.992 ± 0.049
GAGTATCTTT | 0.998 ± 0.018
GAGTATGGGA | 0.983 ± 0.034
GAGTATTAAT | 1.01 ± 0.02
GAGTCATGAG | 1.06 ± 0.049
GAGTCGGTGG | 1.4 ± 0.63
GAGTCGTGTG | 1.04 ± 0.024
GAGTGAAGGG | 1.02 ± 0.016
GAGTGAAGGT | 0.9963 ± 0.008
GAGTGAGGCA | 0.981 ± 0.02
GAGTGAGTGG | 1.019 ± 0.0056
GAGTGATGGC | 1.03 ± 0.014
GAGTGCATGG | 1 ± 0.012
GAGTGCCGTG | 1.01 ± 0.065
GAGTGCGAAC | 1.05 ± 0.082
GAGTGCGGTT | 0.99 ± 0.057
GAGTGGGTAG | 1.03 ± 0.025
GAGTGGTTGC | 1.05 ± 0.12

Sequence | switch fluorescence ratio
GAGTGTCGGC | 0.9963 ± 0.0052
GAGTGTTTTG | 0.9957 ± 0.008
GAGTTAAGGA | 1.02 ± 0.03
GAGTTAGGCA | 1.029 ± 0.0098
GAGTTAGGGC | 0.99 ± 0.011
GAGTTAGGGG | 0.998 ± 0.018
GAGTTAGTAG | 0.966 ± 0.02
GAGTTAGTGT | 1.03 ± 0.017
GAGTTATCG | 1.01 ± 0.018
GAGTTATGG | 0.995 ± 0.043
GAGTTATGGA | 1.03 ± 0.019
GAGTTATTCG | 1.02 ± 0.023
GAGTTCAATG | 1.01 ± 0.03
GAGTTCGAGG | 1.02 ± 0.037
GAGTTCGCGT | 1.093 ± 0.0049
GAGTTGAGGG | 0.973 ± 0.023
GAGTTGGGAT | 1.01 ± 0.011
GAGTTGGGCT | 0.979 ± 0.012
GAGTTTAATC | 1 ± 0.018
GAGTTTAGGA | 0.969 ± 0.034
GAGTTTAGTT | 0.9893 ± 0.0064
GAGTTTGGG | 1 ± 0.02
GAGTTTGTGG | 0.998 ± 0.024
GAGTTTTATG | 0.9631 ± 0.0025
GAGTTTTGAG | 1 ± 0.011

Sequence | switch fluorescence ratio
GAGTTTTGCG | 1.03 ± 0.093
GAGTTTTGGA | 1.02 ± 0.026
GAGTTTTTGG | 0.973 ± 0.015
GAGTTTTTTA | 0.98 ± 0.046
GATAAAAGGC | 0.997 ± 0.024
GATAAAATAG | 1.17 ± 0.2
GATAAAGAAG | 0.9999 ± 0.0071
GATAACCATG | 0.9933 ± 0.0035
GATAACTGAA | 1.068 ± 0.0072
GATAAGTCAG | 0.989 ± 0.018
GATAATAAAC | 1.06 ± 0.045
GATAATTAGG | 1.01 ± 0.02
GATAATTGTC | 0.951 ± 0.048
GATAATTTTT | 0.9884 ± 0.0084
GATACATAAA | 1.036 ± 0.0092
GATACATCGG | 1.03 ± 0.018
GATACCTTCG | 2.614 ± 0.023
GATACGGGGC | 1.02 ± 0.014
GATACGGTTA | 1.03 ± 0.011
GATACTCAGC | 1.06 ± 0.0058
GATAGAAGTG | 0.986 ± 0.014
GATAGACCAG | 1.01 ± 0.025
GATAGAGGGA | 0.999 ± 0.01
GATAGATAGG | 0.967 ± 0.055
GATAGATCAC | 1.03 ± 0.03

Sequence | switch fluorescence ratio
GATAGCTTTT | 1.05 ± 0.082
GATAGGAAAT | 0.977 ± 0.036
GATAGGAGGG | 0.959 ± 0.012
GATAGGATAG | 0.991 ± 0.019
GATAGGGCGC | 1.02 ± 0.026
GATAGGGGGT | 1.01 ± 0.061
GATAGGGGTG | 1.03 ± 0.03
GATAGGGTAA | 0.988 ± 0.039
GATAGTAGTT | 0.9851 ± 0.0096
GATAGTCGTG | 0.994 ± 0.0056
GATAGTGAAG | 0.993 ± 0.015
GATAGTGC | 1.06 ± 0.078
GATAGTGGGA | 0.997 ± 0.018
GATAGTGTCG | 1.04 ± 0.045
GATAGTTGTA | 1.01 ± 0.028
GATATAGGTT | 1 ± 0.02
GATATATTGT | 0.993 ± 0.035
GATATCAACG | 1 ± 0.047
GATATGATCA | 0.9733 ± 0.0052
GATATGCTAC | 1.2 ± 0.023
GATATGCTAT | 0.9915 ± 0.0066
GATATGTTGG | 0.999 ± 0.017
GATATTAAAG | 1.02 ± 0.014
GATATTAGGA | 1 ± 0.088
GATATTGGGC | 1.02 ± 0.024

Sequence | switch fluorescence ratio
GATATTTGCG | 1.015 ± 0.0024
GATATTTGTG | 0.995 ± 0.016
GATATTTTTA | 0.98 ± 0.034
GATCAAAGGG | 1.01 ± 0.021
GATCAAGGGA | 1.03 ± 0.052
GATCACTCGT | 1 ± 0.048
GATCAGAGGG | 1.008 ± 0.01
GATCATCAGT | 0.991 ± 0.023
GATCATTCTT | 1.01 ± 0.016
GATCATTGAC | 1.066 ± 0.0057
GATCCAGAAG | 1.017 ± 0.0036
GATCCTGGGT | 0.974 ± 0.034
GATCGAAAGG | 0.966 ± 0.025
GATCGAGAGG | 0.98 ± 0.025
GATCGAGGCG | 0.9569 ± 0.0055
GATCGATTG | 1.05 ± 0.051
GATCGCGTGG | 0.968 ± 0.012
GATCGCTATC | 2.91 ± 0.39
GATCGGGAAC | 1.06 ± 0.031
GATCTAGGGC | 1.02 ± 0.037
GATCTATTTT | 1.01 ± 0.018
GATCTGCCTG | 0.985 ± 0.029
GATCTGGGGC | 1.06 ± 0.036
GATCTTAGGG | 0.989 ± 0.028
GATCTTGGGT | 1.11 ± 0.19

Sequence | switch fluorescence ratio
GATGAAAAAG | 1.033 ± 0.0093
GATGAAATTG | 0.953 ± 0.045
GATGAAGATT | 1.011 ± 0.005
GATGAAGGTA | 0.991 ± 0.052
GATGAATGGA | 0.959 ± 0.011
GATGAATTGG | 0.975 ± 0.012
GATGACTTGC | 1 ± 0.064
GATGAGAGGA | 1.03 ± 0.05
GATGAGCCCT | 1.03 ± 0.015
GATGAGCGCC | 1.03 ± 0.037
GATGAGGCGG | 0.9832 ± 0.0015
GATGAGGTGC | 1.07 ± 0.024
GATGATAAAA | 0.989 ± 0.033
GATGATAACG | 0.99754 ± 0.00091
GATGATCGTT | 0.988 ± 0.0094
GATGATCTAT | 1.01 ± 0.035
GATGATGGTG | 0.968 ± 0.011
GATGCAGTTC | 1.66 ± 0.053
GATGCATGC | 1.22 ± 0.065
GATGCCACAG | 1.02 ± 0.07
GATGCCGTAG | 0.9997 ± 0.0036
GATGCGACCA | 1.04 ± 0.065
GATGCGGGGG | 1.02 ± 0.039
GATGCGGGTG | 1.07 ± 0.016
GATGCGTGGC | 0.998 ± 0.027

Sequence | switch fluorescence ratio
GATGCTAGAT | 1.01 ± 0.026
GATGGAAAAA | 1.04 ± 0.012
GATGGACAGC | 1.04 ± 0.041
GATGGAGGGG | 0.9965 ± 0.0039
GATGGATCGA | 0.977 ± 0.039
GATGGATCGG | 1.01 ± 0.017
GATGGATGGA | 1.05 ± 0.026
GATGGCAAGG | 1.04 ± 0.043
GATGGCCACG | 0.9881 ± 0.0047
GATGGCCAGC | 1.01 ± 0.041
GATGGCGGGG | 0.981 ± 0.03
GATGGCGGGT | 1.02 ± 0.07
GATGGCGTAT | 0.98 ± 0.031
GATGGGAAGT | 1.01 ± 0.024
GATGGGACAG | 1.01 ± 0.0019
GATGGGAGGG | 0.99 ± 0.027
GATGGGCTAA | 1.04 ± 0.022
GATGGGCTTT | 0.983 ± 0.024
GATGGGGCAC | 1.01 ± 0.013
GATGGGGCGG | 1.01 ± 0.048
GATGGGGTAA | 0.997 ± 0.008
GATGGGTTTC | 0.987 ± 0.012
GATGGTAACT | 0.984 ± 0.017
GATGGTATTT | 0.9794 ± 0.0062
GATGGTGTGG | 0.997 ± 0.015
